From doi:10.1101/2020.05.04.076331
Read-outs that look alike come from different tables or passages of the source.

What was measured:
[1] = target: ^FSClpX (TAMRA-labelled single-chain E. coli ^C169SClpX^ΔN pseudohexamer) (E. coli); test: other fluorescence titration
[2] = target: ^FSClpX (TAMRA-labelled single-chain E. coli ^C169SClpX^ΔN pseudohexamer) (E. coli); test: other fluorescence titration; remark: listed apart in the source
[3] = target: ^FSClpXP (^FSClpX with ClpP) (E. coli) (UniProt P0A6G7); test: stopped-flow fluorescence quenching
[4] = target: ^FSClpXP (^FSClpX with ClpP) (E. coli) (UniProt P0A6G7); test: other fluorescence titration
[5] = target: ^FSClpXP (^FSClpX with ClpP) (E. coli) (UniProt P0A6G7); test: other fluorescence titration; remark: listed apart in the source
[6] = target: ^FSClpXP (^FSClpX with ClpP) (E. coli) (UniProt P0A6G7); test: stopped-flow fluorescence quenching; remark: listed apart in the source

Sequence of UniProt P0A6G7 (P0A6G7 whole entry, looked up): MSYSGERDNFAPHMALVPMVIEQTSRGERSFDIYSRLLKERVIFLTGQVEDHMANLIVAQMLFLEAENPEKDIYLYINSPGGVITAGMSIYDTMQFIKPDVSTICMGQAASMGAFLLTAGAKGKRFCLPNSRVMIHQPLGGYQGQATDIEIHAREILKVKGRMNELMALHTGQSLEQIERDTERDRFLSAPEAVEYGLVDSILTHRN

| Kd [1] [nM] | Kd [2] [nM] | time constant of dissociation, fast phase [3] [s] | time constant of dissociation, slow phase [3] [s] | Kd [4] [nM] | Kd [5] [nM] | time constant of dissociation, fast phase [6] [s] | time constant of dissociation, slow phase [6] [s] | Substance |
| --- | --- | --- | --- | --- | --- | --- | --- | --- |
| 550 | 90 | – | – | – | – | – | – | ^UFtitin-BQ-ssrA (titin-BQ-ssrA unfolded by carboxymethylation of otherwise-buried cysteines) (domain or fragment) |
| 110 | 59 | 3 | 50 | 30 to 100 | 60 | 2 | 240 | titin-BQ-ssrA (ssrA-tagged I27 domain of human titin labelled with the BHQ-10 quencher) (domain or fragment) |
